{"source": "patent US20110269676A1", "target": "recombinant gp120 (HIV (strain not stated))", "experiment": "SPR (BIAcore3000), gp120 immobilised on CM5"}
{"substance": "2D (D1D2 domain of soluble CD4) (from UniProt P01730 26-210) (receptor)", "values": [{"measurement": "Ka", "result": "4.8e+07", "unit": "M⁻¹"}, {"measurement": "Kd", "result": 21, "unit": "nM"}, {"measurement": "koff", "result": 0.00047, "unit": "s⁻¹"}, {"measurement": "kon", "result": 22000, "unit": "M⁻¹ s⁻¹"}]}
